Where “and” joins values, the source holds several entries; their conditions need not be identical. Equal values may be shown once.
Tests used:
Type in all cases: physicochemical
[1] = Bulk density (BD), USP 2014 Method I (616) Bulk Density and Tapped Density of Powders; details: lyophilized Tirzepatide powder, before particle size reduction
Description: Bulk density (BD) was measured according to USP 2014 Method I (616) Bulk Density and Tapped Density of Powders.

[2] = Flowability, flow through an orifice (BEP2 Flowability Tester, 25 mm nozzle); details: lyophilized Tirzepatide powder; flow through funnel, 25 mm aperture
Text: Instrument: BEP2 Flowability Tester from Copley Scientific, with Funnel Attachment and Manually Operated Stirrer with a nozzle corresponding to aperture size of 25 mm.
Methodology: Flow Through an Orifice
The test sample was introduced into the funnel and the time required for the entire sample to flow out of the funnel was measure using a suitable stopwatch.
The flow rate results are expressed in terms of mass vs time, i.e., grams per second.

[3] = Particle size distribution by laser diffraction (Malvern Mastersizer 3000, Mie theory, Isopar-G); details: Tirzepatide powder after particle size reduction (jet milling or sieving)
Description: As used herein, particle size distribution is determined by means of laser diffractometry. More specifically, unless otherwise indicated, the particle size was determined using a Mastersizer 3000 from Malvern Instruments. Preferably, particle size and particle size distribution are determined by laser light diffraction, using Mie theory, and Isopar-G dispersant (isoparaffinic fluid (CAS No) 64742-48-9)) refractive index 1.42.
It will be understood that the term “D(90)” as used herein refers to a particle size distribution where 90% of the volume of particles have a diameter lower than the D(90) value.
• Instrumentation: Malvern Laser Diffraction Mastersizer 3000, Hydro My cell • Measuring range: 0.01-3500 mcm • Analysis model: Mie Theory • Powder RI: 1.488, Absorption: 1 • Dispersant name: Isopar-G • Dispersant RI: 1.42 • Speed rate of the flow cell: 2500 • Internal Sonication: 1 minute • Recirculation time: 1 minute

Substance: Tirzepatide [Example 1A]
- BD (bulk density) [1]: 0.13 g/mL
- flowability [2]: 9.7 g/s

Substance: Tirzepatide [Example 1B]
- BD (bulk density) [1]: 0.007 g/mL
- flowability [2]: non flowable

Substance: Tirzepatide [Example 1]
- BD (bulk density) [1]: 0.1 g/mL
- flowability [2]: 6.1 g/s

Substance: Tirzepatide [Example 2]
- particle size d(0.9) [3]: 21.9 μm

Substance: Tirzepatide [Example 3A]
- particle size d(0.9) [3]: 59 μm and 59.1 μm

Substance: Tirzepatide [Example 3B]
- particle size d(0.9) [3]: 128 μm and 128.0 μm

Substance: Tirzepatide [Example 3]
- particle size d(0.9) [3]: 31 μm and 30.9 μm
